Data on two molecules can be found in US20200000932A1.

This test concerns the target bovine submaxillary mucin (BSM) (bovine). Briefly: BSM ELISA on BSM-coated wells, periodate-sensitive signal (periodate-treated wells subtracted). On the technique in general: An ELISA detects its analyte on a solid surface through an enzyme-linked reagent.

B1: hSIA103 (antibody, human IgG1, kappa, V domains shown)
VH: QVQLVQSGAEVKKPGASVKVSCKASGYTFTDHAIHWVRQAPGQGLEWMGYISPGNGDIKYNEKFKDRVTMTADKSSSTAYMQLRSLRSDDTAVYFCKRSLLALDYWGQGTLVTVSS
VL: DIQMTQSPSSLSASVGDRVTITCKASQDVGTNIAWYQQKPGKAPKVLIYSASTRHTGVPSRFSGSGSGTDFTLTISSLQPEDFATYFCQQYSSFPLTFGQGTKVEIKR
One may read the EC50 as the concentration at which the effect is half-maximal. Molecule B1 had an EC50 of 1.8 nM.

B2: hSIA101 (antibody, human IgG1, kappa, V domains shown)
VH: EVQLVQSGAEVKKPGASVKVSCKASGYTFTDHAIHWVRQAPGQGLEWMGYFSPGNDDIKYNEKFRGRVTMTADKSSSTAYMELRSLRSDDTAVYFCKRSLSTPYWGQGTLVTVSS
VL: DIVMTQSPDSLAVSLGERATINCKSSQSLLNRGNHKNYLTWYQQKPGQPPKLLIYWASTRESGVPDRFSGSGSGTDFTLTISSLQAEDVAVYYCQNDYTYPYTFGQGTKVEIKR
Turning to B2, the EC50 is 4.2 nM.
